Results published in article doi:10.1101/2025.11.27.691040 (bioRxiv, 2025).

Biological target: T1, AtCKA1 (residues 76-409) with C-terminal 6xHis tag (Arabidopsis thaliana, UniProt Q08467 76-409)
T1 sequence (looked up): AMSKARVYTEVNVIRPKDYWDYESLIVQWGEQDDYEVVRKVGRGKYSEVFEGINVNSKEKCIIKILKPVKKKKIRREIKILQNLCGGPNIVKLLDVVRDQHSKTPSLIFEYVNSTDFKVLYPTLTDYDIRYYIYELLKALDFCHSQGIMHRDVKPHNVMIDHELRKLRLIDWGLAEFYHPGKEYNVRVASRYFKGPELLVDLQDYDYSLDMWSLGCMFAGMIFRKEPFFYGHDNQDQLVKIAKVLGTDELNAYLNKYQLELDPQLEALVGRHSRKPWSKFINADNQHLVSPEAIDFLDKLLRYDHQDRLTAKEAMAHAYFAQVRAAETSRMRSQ
Assay: SEC-MALS

- stoichiometry N: 1 β per α (2:2, α2β2)
B1: AtCKB1 (residues 95-287), untagged (domain or fragment, Arabidopsis thaliana, UniProt P40228 95-287, looked up)
chain: DGEDTSWISWFCNLRGNEFFCEVDDDYIQDDFNLCGLSSLVPYYEYALDLILDVESSQGEMFTEEQNELIESAAEMLYGLIHARYILTSKGLAAMLDKYKNYDFGRCPRVYCCGQPCLPVGQSDLPRSSTVKIYCPKCEDIYYPRSKYQGNIDGAYFGTTFPHLFLMTYGHLKPAKATQNYVQRVFGFKLHKP
